B1: FGF21 variant ① (Gln184Glu & Gln201His & Ala208Thr) (ligand)
chain: DSSPLLQFGGQVRQRYLYTDDAQQTEAHLEIREDGTVGGAADQSPESLLQLKALKPGVIQILGVKTSRFLCQRPDGALYGSLHFDPEACSFRELLLEDGYNVYQSEAHGLPLHLPGNKSPHRDPAPRGPARFLPLPGLPPALPEPPGILAPEPPDVGSSDPLSMVGPSHGRSPSYTS
B2: FGF21 variant ② (Ser195Gly & Pro199Gly & Ser200Gly) (ligand)
chain: DSSPLLQFGGQVRQRYLYTDDAQQTEAHLEIREDGTVGGAADQSPESLLQLKALKPGVIQILGVKTSRFLCQRPDGALYGSLHFDPEACSFRELLLEDGYNVYQSEAHGLPLHLPGNKSPHRDPAPRGPARFLPLPGLPPALPEPPGILAPQPPDVGSSDPLGMVGGGQGRSPSYAS
B3: FGF21 variant ③ (combination of variants ① and ②) (ligand)
chain: DSSPLLQFGGQVRQRYLYTDDAQQTEAHLEIREDGTVGGAADQSPESLLQLKALKPGVIQILGVKTSRFLCQRPDGALYGSLHFDPEACSFRELLLEDGYNVYQSEAHGLPLHLPGNKSPHRDPAPRGPARFLPLPGLPPALPEPPGILAPEPPDVGSSDPLGMVGGGHGRSPSYTS

Target: FGFR1c
Experiment: cell-based or functional assay

In order of falling “EC50 of FGFR1c activation (luciferase reporter, HEK293 cells expressing FGFR1c and β-Klotho), fold increase compared to the wild type” value:
1. B3  6.03 fold
2. B2  4.38 fold
3. B1  1.73 fold
